T1: ARPC1 (subunit of fission yeast Arp2/3 complex) (S. pombe, UniProt P78774)
T1 sequence: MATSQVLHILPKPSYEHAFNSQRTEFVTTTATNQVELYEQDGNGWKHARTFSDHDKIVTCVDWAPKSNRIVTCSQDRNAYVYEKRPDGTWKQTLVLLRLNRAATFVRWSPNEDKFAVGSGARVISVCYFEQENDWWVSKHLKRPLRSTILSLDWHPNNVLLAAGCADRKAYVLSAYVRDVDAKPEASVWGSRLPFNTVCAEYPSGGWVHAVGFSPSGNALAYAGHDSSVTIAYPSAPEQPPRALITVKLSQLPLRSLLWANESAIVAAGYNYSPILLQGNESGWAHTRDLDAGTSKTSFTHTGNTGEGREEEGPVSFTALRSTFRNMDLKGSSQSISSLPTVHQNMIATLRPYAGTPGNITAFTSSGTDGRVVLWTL

B1: ARPC3 (subunit of fission yeast Arp2/3 complex) (natural protein)
chain: MPAYHSSFLSLTDVPTTGNIAMLPLKTKFRGPAYPADESQMDIIDECIGLFRANCFFRNFEIKGPADRTLIYGTLFISECLGRVNGLNYRDAERQLNSLALENFSIPGSAGFPLNALYAPPLSPQDAEIMRTYLTQFRQELAYRLLSHVYATEKDHPSKWWTCFSKRRFMNKAL
B2: ARPC4 (subunit of fission yeast Arp2/3 complex) (natural protein)
chain: not shown
B3: ARPC2 (subunit of fission yeast Arp2/3 complex) (natural protein)
chain: MLSLDYNNIFIYELLTERFSSENPSSIDQVVTDFDGVTFHISTPEEKTKILISLSMKCYPELVNYGTLDLLKQIYGAYVHEPEMGYNFSILIDLQQLPATDEEKEQLAMSISMLKRNVLAAPFHRAFTKQAELADLARKDPENAPMLDKQATSQELMAIHYRDEETIVLWPEHDRVTVVFSTKFREETDRIFGKVFLQEFVDARRRPAIQTAPQVLFSYRDPPLEIRDIQGIQKGDDFGFVTFVLFERHFTPQNREDCISHIQVFRNTLHFHIKASKAYMHQRMRKRVADFQKVLNRAKPDVELERKTATGRSFVRA

Columns and labels:
Assay in all cases: cryo-EM structure
[1] = target: Arp2 (subunit of fission yeast Arp2/3 complex) (S. pombe, UniProt Q9UUJ1)
Sequence of Arp2 (subunit of fission yeast Arp2/3 complex) (Q9UUJ1 whole entry, one chain of several): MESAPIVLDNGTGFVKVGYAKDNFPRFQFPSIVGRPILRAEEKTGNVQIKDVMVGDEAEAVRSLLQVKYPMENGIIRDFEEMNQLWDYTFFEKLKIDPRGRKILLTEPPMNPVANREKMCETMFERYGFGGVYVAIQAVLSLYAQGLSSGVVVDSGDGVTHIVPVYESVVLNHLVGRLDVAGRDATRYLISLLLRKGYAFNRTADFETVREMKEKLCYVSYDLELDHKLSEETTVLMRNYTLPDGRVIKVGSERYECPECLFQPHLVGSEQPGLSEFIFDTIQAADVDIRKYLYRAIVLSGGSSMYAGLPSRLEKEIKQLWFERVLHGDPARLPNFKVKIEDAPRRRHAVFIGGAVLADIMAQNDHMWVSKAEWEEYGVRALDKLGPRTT

[2] = target: T1, ARPC1 (subunit of fission yeast Arp2/3 …)
[3] = target: B3

Binder	binding result [1]	binding result [2]	binding result [3]
B1	binds	–	–
B2	–	binds	binds
B3	binds	binds	–

From article PMC9894260 (Proceedings of the National Academy of Sciences of the …, 2022)
